B1: hIL12Rb1_VHH1 (VHH)
VHH: QVQLQESGGGSVQAGGSLRLSCVASGYGYCGYDMSWYRQAPGKEREFVALITSDRSISYEDSVKARFIISRDNAANTGYLDMTRLTPDDTAIYYCKTSAAARESSWCRSRYRVASWGQGTQVTVSS
notes: Camel VHH
B2: hIL12Rb1_VHH10 (VHH)
VHH: QVQLQESGGGSVQAGGSLRLSCAVSGYDYCGYDVRWYRQAPGKEREFVSGIDSDGSTSYADSVKGRFTISQDNAENTSYLHMFSLKPEDTAMYYCKTESPAGESAWCRNFRGMDYWGKGTQVTVSS
notes: Camel VHH
B3: hIL12Rb1_VHH7 (VHH)
VHH: QVQLQESGGGSVQAGGSLRLSCAVSGYDYCGYDVRWYRRAPGKEREFVSGIDSDGSTSYADSVKGRFTISQDNAENTSYLHMFSLKPEDTAMYYCKTESPAGESAWCRNFRGMDYWGKGTQVTVSS
notes: Camel VHH
B4: mIL12Rb1_VHH5 (VHH)
VHH: QVQLQESGGGSVQAGETLRLSCTVSGFTIDDSEMGWYRQAPGHECELVASGSSDDDTYYVDSVKGRFTISLDNAKNMVYLQMNSLKPEDTAVYYCATGPTYPPKDGDCAHWGQGTQVTVSS
notes: Camel VHH
B5: mIL12Rb1_VHH19 (VHH)
VHH: QVQLQESGGGSVQAGGFLRLSCVASGYGYCGYDMSWYRQVPGKEREFVALITSDRSVSYEDSVKGRFSISRDNAKNTAYLEMNRLTPDDTAIYYCKTSTAARENNWCRSRYRIASWGQGTQVTVSS
notes: Camel VHH
B6: mIL12Rb1_VHH20 (VHH)
VHH: QVQLQESGGGSVQAGGSLRLSCVASGYGYCGYDMSWYRQTPGKEREFVALITSDRIASYEDSVKGRFIISRDNAKNTGYLDMTRVTPDDTAIYYCKTSAAARENSWCRSRYRVASWGQGTQVTVSS
notes: Camel VHH
B7: mIL12Rb1_VHH8 (VHH)
VHH: QVQLQESGGGSVQAGGFLRLSCVASGYGYCGYDMSWYRQAPGKEREFVALITSERVISYEDSVKGRFSISRDNAENTGYLEMNRLTPDDTAIYYCKTSAAARESSWCRSRYRVASWGQGTQVTVSS
notes: Camel VHH
B8: mIL12Rb1_VHH15 (VHH)
VHH: QVQLQESGGGSVQAGGFLRLSCVASGYGYCGYDMSWYRQVPGKEREFVALITSDRSVSYEDSVKGRFSISRDNAKNTAYLEMNRLTPDDTAVYYCKTSTAARENNWCRSRYRIAYWGQGTQVTVSS
notes: Camel VHH
B9: mIL12Rb1_VHH4 (VHH)
VHH: QVQLQESGGGSVQAGGSLRLSCAASRYTYTNNFMAWFRQAPGKEREGVAAIYTGDGYAYYFDSVKGRFTISQDNDKNMLYLQMNSLKPEDTAMYYCAAMERRSGRRRMTENAEYKYWGQGTQVTVSS
notes: Camel VHH
B10: mIL12Rb1_VHH12 (VHH)
VHH: QVQLQESGGGSVQAGGSLRLSCAASRYTYTNNFMAWFRQAPGKEREGVAAIYTGDGYAYYFYSVKGRFTISQDNDENMLYLQMNSLKPEDTAMYYCAAMERRIGTRRMTENAEYKYWGQGTQVTVSS
notes: Camel VHH
B11: mIL12Rb1_VHH9 (VHH)
VHH: QVQLQESGGGSVQAGGSLRLSCVASGYGYCGYDMSWYRQAPGKEREFVALITSDRSISYEDSVKARFIISRDNAANTGYLDMTRLTPDDTAIYYCKTSAAARESSWCRSRYRVASWGQGTQVTVSS
notes: Camel VHH
B12: mIL12Rb1_VHH1 (VHH)
VHH: QVQLQESGGGSVQAGGSLRLSCTASGYTYSSAFMAWFRQAPGKEREGVAAIYTRDGGTVYADSVKGRFTISQDNAKNTLYLQMNSLKAEDTAMYYCAAKIPQPGRASLLDSQTYDYWGQGTQVTVSS
notes: Camel VHH
B13: mIL12Rb1_VHH22 (VHH)
VHH: QVQLQESGGGSVQAGGSLRLSCTASGYTYSSAFMAWFRQAPGKEREGVAAIYTRDGGTVYADSVKGRFTISQDNAKNILYLQMNSLKAEDTAMYYCAAKIPQPGRASLLDSQTYDYWGQGTQVTVSS
notes: Camel VHH
B14: mIL12Rb1_VHH6 (VHH)
VHH: QVQLQESGGGSVQAGGSLRLSCTASGYTYSSAFMAWFRQAPGKEREGVAAIYTRDGSPVYADSLKGRFTISQDNAKNTLHLQMNSLKPEDTAMYYCAAKIPEPGRISLLDSQTYDYWGHGTQVTVSS
notes: Camel VHH
B15: mIL12Rb1_VHH23 (VHH)
VHH: QVQLQESGGGSVQAGGSLRLSCTASGYTYSSAFMAWFRQAPGKEREGVAAIYTRDGGTVYADSVKGRFTISQDNAKNTLYLQMNSLKPEDTAMYYCAAKMPQPGRASLLDSQTYDYWGQGTQVTVSS
notes: Camel VHH
B16: mIL12Rb1_VHH18 (VHH)
VHH: QVQLQESGGGSVQAGGSLRLSCTASGYTYSSAFMAWFRQAPGKEREGVAAMYTRDGGTVYADSVKGRFTISQDNAKNTLYLQMNSLKTEDTAMYYCAAKIPQPGRASLLDSQTYDYWGQGTQVTVSS
notes: Camel VHH
B17: mIL12Rb1_VHH17 (VHH)
VHH: QVQLQESGGGSVQAGGSLRLSCTASGYTYSSAFMAWFRQAPGKEREGVAAMYTRDGGTVYADSVKGRFTISQDNAKNTLYLQIHTLKAEDTAMYYCAAKIPQPGRASLLDSQTYDYWGQGTQVTVSS
notes: Camel VHH
B18: mIL12Rb1_VHH10 (VHH)
VHH: QVQLQESGGGSVQAGGSLRLSCAVSGYDYCGYDVRWYRQAPGKEREFVSGIDSDGSTSYADSVKGRFTISQDNAENTSYLHMFSLKPEDTAMYYCKTESPAGESAWCRNFRGMDYWGKGTQVTVSS
notes: Camel VHH
B19: mIL12Rb1_VHH2 (VHH)
VHH: QVQLQESGGGSVQAGGSLRLSCAVSGYDYCGYDVRWYRQAPGKEREFVSGIDSDGSTSYADSVKGRFTISQDNAENTSYLHMFSLKPEDTAMYYCKTESPAGESAWCRNFRGMDYWGKGTQVTVSS
notes: Camel VHH
B20: mIL12Rb1_VHH7 (VHH)
VHH: QVQLQESGGGSVQAGGSLRLSCAVSGYDYCGYDVRWYRRAPGKEREFVSGIDSDGSTSYADSVKGRFTISQDNAENTSYLHMFSLKPEDTAMYYCKTESPAGESAWCRNFRGMDYWGKGTQVTVSS
notes: Camel VHH
B21: mIL12Rb1_VHH21 (VHH)
VHH: QVQLQESGGGSVQAGGSLRLSCAVSGYDYCGYDVRWYRRAPGKEREFVSGIDSDGSTSYADSVKGRFTISQDNAENTSYLHMFSLKPEDTAMYYCKTESPAGESAWCRNFRGMDYWGKGTQVTVSS
notes: Camel VHH
B22: mIL12Rb1_VHH14 (VHH)
VHH: QVQLQESGGGSVQAGGSLRLSCAVSGYDYCGYDVRWYRQAPGKEREFVSGINSDGSTSYADSVKGRFTISQDNAENTSYLHMFSLKPEDTAMYYCKTESPAGESAWCRNFRGMDYWGKGTQVTVSS
notes: Camel VHH
B23: mIL12Rb1_VHH16 (VHH)
VHH: QVQLQESGGGSVQAGGSLRLSCAVSGYDYCGYDVRWYRQAPGKEREFVSGINSDGSTSYADSVKGRFTISQDNAENTSYLHMFSLKPEDTAMYYCKTEGPAGESAWCRNFRGMDYWGKGTQVTVSS
notes: Camel VHH
B24: mIL12Rb1_VHH3 (VHH)
VHH: QVQLQESGGGSVQAGGSLRLSCVASGYSYCGYDMMWYRQAPGKEREFVALITSDYSIRYEDSVEGRFSISRDNAKNTGYLLMSNLTPADTAIYYCKTSTAARESSWCRSRYRVASWGQGTQVTVSS
notes: Camel VHH
B25: mIL12Rb1_VHH11 (VHH)
VHH: QVQLQESGGGSVQAGGSLRLSCVASGYSYCGYDMMWYRQAPGKEREFVALITSDYSIRYEDSVEGRFSISRDNAKNTGYLLMSNLTPADTAIYYCKTSTAARESSWCRSRYRVASWGQGTQVTVSS
notes: Camel VHH
B26: mIL12Rb1_VHH13 (VHH)
VHH: QVQLQESGGGSVQAGGSLRLSCVASGYSYCGYDMMWYRQAPGKEREFVALITSDYSIRYEDSVEGRFSISRDNAKNTGYLLMSNLTPADTAIYYCKTSTAARESGWCRSRYRVASWGQGTQVTVSS
notes: Camel VHH

For the first test, the target named is T1, extracellular domain of human IL12RB1 (hIL12Rb1 ECD antigen) (human, UniProt P42701 24-545).
T1 construct: also called IL12Rβ1; CD212
Nature of the test: periplasmic extract ELISA on antigen-coated plate after phage biopanning. The protocol:
(§1) Upon completion of the biopanning of Example 3, three 96-well plates of individual phage clones were isolated in order to perform periplasmic extract ELISA (PE-ELISA) on IL12Rb1 coated plates to identify positive VHH binders that selectively bound IL12Rb1. A 96-well plate was coated with IL12Rb1 and PBS under the same conditions. Next, wells were blocked at 37° ° C. for 1 h. Then, 100 μl of extracted antibodies was added to each well and incubated for 1 h. Subsequently, 100 μl of anti-tag polyclonal antibody conjugated to HRP was added to each well and incubated at 37 °C for 1 h. Plates were developed with TMB substrate. The reaction was stopped by the addition of H2SO4. Absorbance at 450 nm was read on a microtiter plate reader. Antibodies with absorbance of the antigen-coated well at least threefold greater than PBS-coated control are VHHs that specifically bind to IL12Rb1. Positive clones were sequenced, and sequences analyzed to identify unique clonotypes.
(An ELISA detects its analyte on a solid surface through an enzyme-linked reagent.)
B1: the binding result was “binds”.

In the case of B2, the binding result was “binds”.

Consider B3, for which the binding result is “binds”.

For another test, the target named is T2, extracellular domain of mouse IL12RB1 (mIL12Rb1 ECD antigen) (mouse, UniProt Q60837 20-565).
T2 construct: also called murine IL12RB1
T2 sequence: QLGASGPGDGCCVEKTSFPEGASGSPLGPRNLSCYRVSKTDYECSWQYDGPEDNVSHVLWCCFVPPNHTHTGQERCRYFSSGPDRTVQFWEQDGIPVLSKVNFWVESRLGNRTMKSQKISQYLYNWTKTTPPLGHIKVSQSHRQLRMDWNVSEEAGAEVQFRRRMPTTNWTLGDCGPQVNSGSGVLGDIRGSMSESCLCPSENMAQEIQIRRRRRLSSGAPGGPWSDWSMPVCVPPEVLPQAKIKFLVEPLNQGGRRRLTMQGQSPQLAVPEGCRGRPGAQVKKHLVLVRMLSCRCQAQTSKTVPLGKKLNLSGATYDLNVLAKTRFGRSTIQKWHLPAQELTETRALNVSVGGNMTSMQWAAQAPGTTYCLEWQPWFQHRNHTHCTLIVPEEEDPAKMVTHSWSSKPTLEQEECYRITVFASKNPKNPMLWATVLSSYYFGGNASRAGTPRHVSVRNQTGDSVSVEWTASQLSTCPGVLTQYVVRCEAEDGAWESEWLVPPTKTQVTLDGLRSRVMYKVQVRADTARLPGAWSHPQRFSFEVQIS
The test is described as above. On the procedure:
as §1
On to B4, for which the binding result is “binds”.

Consider B5, for which the binding result is listed as “binds”.

For the molecule B6, the binding result is recorded as “binds”.

As for B7, the binding result is on record as “binds”.

As for B8, the binding result is “binds”.

Take B9: the binding result is recorded as “binds”.

As to B10, the binding result is “binds”.

On to B11, for which the binding result is reported as “binds”.

Take B12: the binding result is given as “binds”.

In the case of B13, the binding result is listed as “binds”.

Turning to B14, the binding result is listed as “binds”.

In the case of B15, the binding result is “binds”.

B16: the binding result was “binds”.

For the molecule B17, the binding result is listed as “binds”.

For the molecule B18, the binding result is on record as “binds”.

With B19, the binding result is “binds”.

With B20, the binding result is reported as “binds”.

On to B21, for which the binding result is given as “binds”.

With B22, the binding result was “binds”.

For B23, the binding result is “binds”.

Take B24: the binding result was “binds”.

For the molecule B25, the binding result was “binds”.

For B26, the binding result is “binds”.

The values above are taken from patent US20240166754A1 (SYNTHEKINE, published 2024).
